Data: US20170369592A1, “NOVEL ANTI-FIBROBLAST ACTIVATION PROTEIN (FAP) ANTIBODIES AND USES DERIVED THEREOF” (Mabimmune Diagnostics AG, priority 2015, published 2017)
Blank lines part the entries; values can stand above or below the molecule they belong to.

Columns and labels:
[1] = cyclization; cited from earlier work
[2] = tested on: tumor growth in NSCLC and MCRC; conditions: mouse models; cited from earlier work
[3] = pH 7.8; cited from earlier work
[4] = molecular target: directly coated FAP peptides mixture (cFAP); assay: Direct ELISA, mixture of FAP-specific peptides directly coated; format: binding, human; conditions: non-linear regression
Description: ELISA assays were performed with varying antibody concentrations to validate the binding of the exemplary antibodies of the present invention to FAP and to be able to determine their half maximal effective concentration (EC50). For the exemplary recombinant human NI-206.82C2, NI-206.59B4, NI-206.22F7, NI-206.27E8, NI-206.12G4 and NI-206.17A6 antibodies, 96-well microplates (Costar, Corning, USA) were coated with FAP, with a mixture of the 3 peptides or with BSA (Sigma-Aldrich, Buchs, Switzerland) diluted to a concentration of 5 μg/ml in carbonate ELISA coating buffer (15 mM Na2CO3, 35 mM NaHCO3, pH 9.4) for the direct ELISA. For the capture ELISA, the microplates were coated with mouse anti-His monoclonal antibody (Clontech) diluted to a concentration of 3 μg/ml in PBS, the plates were then blocked, FAP or BSA were diluted to a concentration of 2 μg/ml in PBS and added to the plates to be captured. The binding efficiency of the antibodies was then tested. The exemplary NI-206.82C2 antibody specifically and strongly binds to the captured FAP and less efficiently to the directly coated FAP. The exemplary NI-206.59B4 antibody specifically, strongly and similarly binds to the captured FAP and to the directly coated FAP.
The EC50 values were estimated by a non-linear regression using GraphPad Prism (San Diego, USA) software. […] The binding of NI-206.12G4 towards sFAP was not tested.

[5] = molecular target: T1, recombinant human Fibroblast Activation Protein (FAP) (human, UniProt Q12884 26-760); assay: cell-based or functional assay
T1 sequence (looked up): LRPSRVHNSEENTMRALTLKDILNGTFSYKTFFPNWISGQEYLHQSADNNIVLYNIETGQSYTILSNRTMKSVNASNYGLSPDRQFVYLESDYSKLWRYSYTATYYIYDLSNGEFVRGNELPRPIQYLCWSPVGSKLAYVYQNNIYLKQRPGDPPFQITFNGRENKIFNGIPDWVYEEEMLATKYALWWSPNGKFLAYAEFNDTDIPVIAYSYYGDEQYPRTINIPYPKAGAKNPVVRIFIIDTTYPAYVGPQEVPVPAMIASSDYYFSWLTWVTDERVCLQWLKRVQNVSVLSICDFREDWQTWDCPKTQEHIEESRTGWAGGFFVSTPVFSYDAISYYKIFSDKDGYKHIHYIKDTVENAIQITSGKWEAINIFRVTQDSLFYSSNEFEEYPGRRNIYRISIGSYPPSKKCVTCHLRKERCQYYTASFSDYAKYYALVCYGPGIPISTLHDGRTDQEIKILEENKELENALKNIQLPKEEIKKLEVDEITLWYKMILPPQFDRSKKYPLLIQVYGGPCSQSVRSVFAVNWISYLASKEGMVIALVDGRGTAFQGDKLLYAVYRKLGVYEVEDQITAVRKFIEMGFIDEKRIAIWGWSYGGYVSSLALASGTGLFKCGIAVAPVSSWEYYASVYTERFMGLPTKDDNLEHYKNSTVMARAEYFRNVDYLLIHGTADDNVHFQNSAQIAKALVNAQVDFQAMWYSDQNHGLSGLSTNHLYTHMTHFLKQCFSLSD

[6] = molecular target: T1, recombinant human Fibroblast Activation …; assay: ELISA, tagged rhFAP captured on the plate with an anti-tag antibody, HRP-labelled NI-206.82C2, TMB, OD 450 nm; axis unit as printed (pM) [continued) B]
Description: Active recombinant human enzymes evaluated in this assay include: Fibroblast Activation Protein (FAP; Sino Biologicals, 10464-H07H), Dipeptidyl Peptidase IV (DPPIV, BPS Bioscience 80040), Dipeptidyl Peptidase 8 (DPP8, BPS Bioscience 80080), Dipeptidyl Peptidase 9 (DPP9, BPS Bioscience 80080), and Prolyl Oligopeptidase/Prolyl Endopeptidase (POP/PREP, BPS Bioscience 80105). Each recombinant peptidase was expressed with a purification tag, and attached to the 96 well ELISA plate using either a mouse anti-Histidine antibody (CloneTech), or a mouse anti-Glutathione S-transferase (GST, Sino Biologicals, 111213-MM02) tag antibody. […] H-Gly-Pro-AMC (ATT Bioquest, 13450) was used to validate the presence and activity of DPP4, DPP9, and DPP8. Z-Gly-Pro-AMC (BaChem, 11145) was used to evaluate the activity of FAP and POP/PREP. […] Following a washing step, bound antibody was detected using 3,3′,5,5′-Tetramethylbenzidine (TMB) substrate.

[7] = molecular target: T2, active recombinant murine FAP (mouse, UniProt P97321 26-761); assay: cell-based or functional assay
T2 sequence (looked up): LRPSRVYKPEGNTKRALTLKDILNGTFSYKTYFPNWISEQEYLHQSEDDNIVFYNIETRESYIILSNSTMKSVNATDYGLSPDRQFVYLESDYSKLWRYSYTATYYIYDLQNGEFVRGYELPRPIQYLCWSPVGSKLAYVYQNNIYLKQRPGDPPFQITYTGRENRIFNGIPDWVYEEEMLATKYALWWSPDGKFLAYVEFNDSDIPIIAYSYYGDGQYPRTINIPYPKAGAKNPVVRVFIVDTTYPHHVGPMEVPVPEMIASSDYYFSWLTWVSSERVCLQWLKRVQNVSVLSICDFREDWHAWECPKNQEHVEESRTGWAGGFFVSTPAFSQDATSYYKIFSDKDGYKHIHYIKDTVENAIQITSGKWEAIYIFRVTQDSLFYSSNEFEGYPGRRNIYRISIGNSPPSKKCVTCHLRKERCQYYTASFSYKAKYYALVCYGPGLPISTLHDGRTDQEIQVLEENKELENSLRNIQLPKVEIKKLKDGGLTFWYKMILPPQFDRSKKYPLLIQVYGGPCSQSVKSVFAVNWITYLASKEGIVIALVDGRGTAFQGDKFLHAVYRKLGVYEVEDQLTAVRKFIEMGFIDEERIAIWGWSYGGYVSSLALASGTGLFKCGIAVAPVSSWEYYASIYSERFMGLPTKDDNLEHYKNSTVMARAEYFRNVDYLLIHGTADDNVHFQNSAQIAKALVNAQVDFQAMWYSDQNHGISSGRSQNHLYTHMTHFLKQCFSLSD

[8] = molecular target: T1, recombinant human Fibroblast Activation …; assay: cell-based or functional assay; remark: listed apart in the source
[9] = molecular target: T3, recombinant human Dipeptidyl Peptidase IV (DPPIV) (human, UniProt P27487 29-766, limits assumed); assay: ELISA, recombinant human CD26 on the plate, NI-206.82C2 detected with HRP goat anti-human antibody, OD450
T3 construct: Bought; also called rhDPPIV; DPP4
T3 sequence (P27487 29-766 limits assumed): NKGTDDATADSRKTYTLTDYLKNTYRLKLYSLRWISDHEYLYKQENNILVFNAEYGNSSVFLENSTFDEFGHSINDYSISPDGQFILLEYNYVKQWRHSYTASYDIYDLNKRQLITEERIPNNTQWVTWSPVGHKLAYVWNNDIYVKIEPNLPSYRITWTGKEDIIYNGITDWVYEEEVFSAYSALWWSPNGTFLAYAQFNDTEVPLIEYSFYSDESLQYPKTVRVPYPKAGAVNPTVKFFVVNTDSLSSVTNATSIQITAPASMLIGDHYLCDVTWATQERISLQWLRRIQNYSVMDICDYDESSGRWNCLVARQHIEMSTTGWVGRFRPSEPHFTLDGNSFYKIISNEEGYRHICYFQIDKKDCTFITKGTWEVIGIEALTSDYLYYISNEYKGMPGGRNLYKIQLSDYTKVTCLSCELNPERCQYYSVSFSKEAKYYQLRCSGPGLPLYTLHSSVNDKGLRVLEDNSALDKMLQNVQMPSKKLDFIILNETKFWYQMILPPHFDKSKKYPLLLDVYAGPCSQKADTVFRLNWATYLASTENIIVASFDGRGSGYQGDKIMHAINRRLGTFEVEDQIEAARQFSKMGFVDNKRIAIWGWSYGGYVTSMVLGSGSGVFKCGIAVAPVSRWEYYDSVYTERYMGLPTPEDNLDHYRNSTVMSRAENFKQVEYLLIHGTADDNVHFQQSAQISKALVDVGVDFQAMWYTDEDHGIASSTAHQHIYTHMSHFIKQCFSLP

EC50, binding to directly coated FAP peptides mixture (cFAP) [4]: did not show any binding
B1: NI-206.59B4: recombinant human-derived monoclonal anti-FAP antibody, variable regions in FIG. 1 (antibody, V domains shown)
VH: QVQLVQSGAEVKKPGASVKVSCKTSGYTFTDYYIHWVRQAPGQGLEWMGWINPNRGGTNYAQKFQGRVTMTRDTSIATAYMELSRLRSDDTAVYYCATASLKIAAVGTFDCWGQGTLVTVSS
VL: SYELTQPPSVSVSPGQTARITCSGDALSKQYAFWFQQKPGQAPILVIYQDTKRPSGIPGRFSGSSSGTTVTLTISGAQADDEADYYCQSADSSGTYVFGTGTKVTVL

IC50, inhibition of rhFAP gelatinase activity (DQ-gelatin cleavage) [5]: 7.7 nM | EC50 (read off the curve) [6]: 0.04 to 0.05 nM | IC50 (read off the curve) [continued) B] [7]: ~60 nM | IC50 (read off the curve) [8]: ~10 nM | binding result [9]: no binding (tested: 20 nM)
B3: NI-206.82C2 (antibody, V domains shown)
VH: QVQLQQSGPGLVKPSQTLSLTCAISGDSVSSNSVTWNWIRQSPSRGLEWLGRTYYRSKWYNDYAVSVKGRITINPDTSKNQFYLQLKSVTPEDAAVYYCARDSSILYGDYWGQGTLVTVSS
VL: QAVLTQPSSLSASPGASASLTCTLPSGINVGTYRIFWFQQKPGSPPQYLLSYKSDSDNHQGSGVPSRFSGSKDASANAGILLISGLQSEDEADYYCMIWHSSAWVFGGGTKLTVL
notes: Labelled with HRP or Cy5 in some assays; also called HRP-labelled 82C2

EC50, binding to directly coated FAP peptides mixture (cFAP) [4]: did not show any binding
B4: NI-206.27E8: recombinant human-derived monoclonal anti-FAP antibody, variable regions in FIG. 1 (antibody, V domains shown)
VH: EVQLVESGGGLVEPGGSLRLSCAASGFTFSDAWMNWVRQAPGKGLEWVGRIKTKSDGGTTDYAAPVRGRFSISRDDSKNTLFLEMNSLKTEDTAIYYCFITVIVVSSESPLDHWGQGTLVTVSS
VL: SYELTQPPSVSVSPGQTARITCSGDELPKQYAYWYQQKPGQAPVLVIYKDRQRPSGIPERFSGSSSGTTVTLTISGVQAEDEADYYCQSAYSINTYVIFGGGTKLTVL

Second part, the molecule before the results:

Molecule: N[C@@H](CCC(=O)O)C(=O)N1CCC[C@H]1B(O)O [PT-630]
in-vivo stability [1]: poor in-vivo stability | tumor growth [2]: abrogate tumor growth

Molecule: CC(C)[C@H](N)C(=O)N1CCC[C@H]1B(O)O [Talabostat, Val-boroPro]
stability of inhibitory activity in aqueous media [3]: rapidly loses inhibitory activity

B2: NI-206.17A6: recombinant human-derived monoclonal anti-FAP antibody, variable regions in FIG. 1 (antibody, V domains shown)
VH: QVQLQESGPGLVRSTETLSLTCLVSGDSINSHYWSWLRQSPGRGLEWIGYIYYTGPTNYNPSLKSRVSISLGTSKDQFSLKLSSVTAADTARYYCARNKVFWRGSDFYYYMDVWGKGTTVTVSS
VL: EIVLTQSPGTLSLSLGERATLSCRASQSLANNYLAWYQQKPGQAPRLLMYDASTRATGIPDRFSGSGSGTDFTLTISRLEPEDFAVYYCQQFVTSHHMYIFGQGTKVEIK
EC50, binding to directly coated FAP peptides mixture (cFAP) [4]: did not show any binding

B5: NI-206.12G4: recombinant human-derived monoclonal anti-FAP antibody, variable regions in FIG. 1 (antibody, V domains shown)
VH: EVQLVESGGGLVKPGGSLRLSCAASGFTFSDYYMSWIRQAPGKGLEWISYISSGSSYTNYADSVKGRFTISRDNAKKSVYLEVNGLTVEDTAVYYCARVRYGDREMATIGGFDFWGQGTLVTVSS
VL: SYELTQPPSVSVSPGQTARITCSGDALPKQYAYWYQQSPGQAPVLVIYKDSERPSGIPERFSGSSSGTTVTLTISGVQAEDEADYYCQSADSGGTSRIFGGGTKLTVL
EC50, binding to directly coated FAP peptides mixture (cFAP) [4]: did not show any binding
